Test results reported in US20210275683A1 (SILVERBACK THERAPEUTICS, published 2021).
Positions count from the first letter of the chain named. Names and notes keep the numbering of the source.

T1: Nectin-4 on MDA-MB-175-VII tumor cells (UniProt Q96NY8 32-510, limits assumed)
T1 sequence (looked up): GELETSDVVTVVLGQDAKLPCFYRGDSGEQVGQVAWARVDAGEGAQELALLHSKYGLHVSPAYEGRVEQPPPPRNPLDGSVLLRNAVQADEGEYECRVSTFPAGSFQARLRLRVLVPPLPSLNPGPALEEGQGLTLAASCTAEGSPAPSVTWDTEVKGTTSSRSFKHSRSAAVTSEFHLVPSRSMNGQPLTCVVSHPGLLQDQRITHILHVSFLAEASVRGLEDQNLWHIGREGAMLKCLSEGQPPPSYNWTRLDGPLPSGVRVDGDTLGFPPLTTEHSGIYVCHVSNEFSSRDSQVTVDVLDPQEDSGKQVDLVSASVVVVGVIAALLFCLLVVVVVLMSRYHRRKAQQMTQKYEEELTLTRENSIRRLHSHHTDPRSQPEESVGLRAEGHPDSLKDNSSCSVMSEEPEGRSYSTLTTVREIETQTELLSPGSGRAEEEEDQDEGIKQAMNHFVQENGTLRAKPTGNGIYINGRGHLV

T2: huNectin-1 ECD-hFc (human, UniProt Q15223 31-355)
T2 construct: extracellular domain; Bought (Sino Biological); also called hFc-tagged human Nectin-1 ECD dimeric protein; not shown: human Fc tag
T2 sequence (looked up): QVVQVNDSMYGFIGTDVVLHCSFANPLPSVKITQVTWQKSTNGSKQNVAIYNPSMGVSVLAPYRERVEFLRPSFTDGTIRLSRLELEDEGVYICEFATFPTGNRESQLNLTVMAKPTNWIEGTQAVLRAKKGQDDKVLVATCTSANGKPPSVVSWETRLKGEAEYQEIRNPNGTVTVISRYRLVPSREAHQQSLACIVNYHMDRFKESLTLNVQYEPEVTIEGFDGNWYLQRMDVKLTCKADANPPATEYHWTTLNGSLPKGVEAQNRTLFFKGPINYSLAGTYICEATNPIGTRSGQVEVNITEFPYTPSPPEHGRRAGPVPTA

T3: huNectin-2 ECD-hFc (human, UniProt Q92692 32-360)
T3 construct: extracellular domain; Bought (Sino Biological); also called hFc-tagged human Nectin-2 ECD dimeric protein; not shown: human Fc tag
T3 sequence (looked up): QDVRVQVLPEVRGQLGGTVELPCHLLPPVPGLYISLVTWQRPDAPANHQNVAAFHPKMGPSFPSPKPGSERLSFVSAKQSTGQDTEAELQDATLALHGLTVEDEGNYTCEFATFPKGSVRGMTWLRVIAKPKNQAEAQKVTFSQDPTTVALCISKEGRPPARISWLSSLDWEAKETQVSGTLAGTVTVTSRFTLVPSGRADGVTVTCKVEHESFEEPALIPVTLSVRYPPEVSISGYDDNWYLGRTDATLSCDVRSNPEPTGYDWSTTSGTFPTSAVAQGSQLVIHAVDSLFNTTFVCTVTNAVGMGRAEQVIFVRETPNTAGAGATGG

T4: human Nectin-4 on transfected HEK-293 cells (human, UniProt Q96NY8 32-510)
T4 construct: whole, on cells; also called HEK-293 cells transfected with human Nectin-4; Nectin-4-expressing HEK-293 cells
T4 sequence (looked up): T1 sequence (looked up)

T5: cynomolgus Nectin-4 on transfected HEK-293 cells (cynomolgus, UniProt A0A2K5WES1 32-510)
T5 construct: whole, on cells; also called HEK-293 cells transfected with cynomolgus Nectin-4
T5 sequence: T1 sequence (looked up) with V39A, I230V, A437T

T6: huNectin-4 ECD-hFc (human, UniProt Q96NY8 32-349)
T6 construct: extracellular domain; Bought (Sino Biological); also called hFc-tagged human Nectin-4 ECD dimeric protein; human Nectin-4 ECD; not shown: human Fc tag
T6 sequence (looked up): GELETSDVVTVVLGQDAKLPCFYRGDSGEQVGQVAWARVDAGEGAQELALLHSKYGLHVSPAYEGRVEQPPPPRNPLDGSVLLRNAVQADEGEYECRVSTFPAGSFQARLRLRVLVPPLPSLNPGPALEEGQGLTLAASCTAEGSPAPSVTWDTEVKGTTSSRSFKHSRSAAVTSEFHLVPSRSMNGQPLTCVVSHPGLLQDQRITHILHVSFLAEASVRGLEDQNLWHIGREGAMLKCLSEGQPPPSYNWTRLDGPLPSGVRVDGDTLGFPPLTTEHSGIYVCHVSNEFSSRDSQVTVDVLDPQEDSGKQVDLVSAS

B1: hzD6.2C-Compound 2.14 (anti-Nectin-4-TLR8 agonist immunoconjugate) (antibody, V domains shown)
VH: EVQLVESGGGLVQPGGSLRLSCAASGFTFSNYDMSWVRQAPGKGLEWVATISSGGSYTYYVDSVKGRFTISRDNAKNSLYLQMNSLRAEDTAVYYCARQELGSYYAMDYWGQGTTVTVSS
VL: DIVMTQTPLSLPVTPGEPASISCRSSQSIVHSNANTYLEWYLQKPGQSPQLLIYKVSNRFSGVPDRFSGSGSGTDFTLKISRVEAEDVGVYYCFQGSHVPYTFGGGTKVEIKR
notes: hzD6.2C conjugated to linker-TLR8 agonist Compound 2.14
B2: hzD6.1C-Compound 2.14 (anti-Nectin-4-TLR8 agonist immunoconjugate) (antibody, V domains shown)
VH: B1 VH
VL: B1 VL with I2V, A34G
notes: hzD6.1C conjugated to linker-TLR8 agonist Compound 2.14
B3: D6C IgG1-Compound 2.14 (parental antibody TLR8 agonist conjugate) (antibody, V domains shown)
VH: EVMLVESGGALVKPGGSLKLSCVASGFTFSNYDMSWVRQTPEKRLEWVATISSGGSYTYYVDSVKGRFTISRDNARNTLHLQMSSLRSKDTAMYYCARQELGSYYAMDYWGQGTSVTVSS
VL: DVVMTQTPLSLPVSLGDQASISCRSSQSIVHSNGNTYLEWYLQKPGQSPKLLIYKVSNRFSGVPDRFSGSGSGTDFTLKISRVEAEDLGVYYCFQGSHVPYTFGGGTKLEIK
notes: IgG1
B4: humanized D6C mAb with hzD6.2C VL (G34A), human IgG1 / human kappa (antibody, V domains shown)
VH: B1 VH
VL: B1 VL
notes: also called hzD6.2C mAb
B5: humanized D6C mAb with hzD6.1C VL (I2V), human IgG1 / human kappa (antibody, V domains shown)
VH: B1 VH
VL: B1 VL with I2V, A34G
notes: also called hzD6.IC
B6: D6C parental chimeric anti-Nectin-4 antibody (D6C IgG1) (antibody, V domains shown)
VH: B3 VH
VL: B3 VL
notes: Called the parental chimeric antibody; also called chimeric D6C

Each binder was assayed against T1, Nectin-4 on MDA-MB-175-VII tumor cells (assay: cell-based or functional assay).

Binder | TNF-α production from human PBMCs co-cultured with MDA-MB-175-VII cells, EC50 [nM]
B1 | 0.37
B2 | 0.33
B3 | 0.83

What follows are binders tested against T2, huNectin-1 ECD-hFc (assay: BLI (Octet Red 96), biotinylated hzD6.2C on streptavidin biosensors, dimeric ECD-hFc in solution).
Procedure: (§1) Analysis of hzD6.2C monoclonal antibody (mAb) for binding to human Nectin-1, Nectin-2, Nectin-3, and Nectin-4 extracellular domains (ECDs) was performed using Octet® Red 96 instrument (ForteBio, Inc.). Biotinylated hzD6.2C mAb was immobilized on streptavidin biosensors and incubated with hFc-tagged human Nectin-1, -2, -3, and -4 ECD dimeric proteins (Sino Biological) at varying concentrations ranging from 1.2 nM to 300 nM in PBS/1% BSA/0.2% Tween 20. The experimental measurements were performed as follows: (1) baseline acquisition (30 s); (2) biotinylated hzD6.2C mAb loading onto streptavidin biosensor (120 s); (3) second baseline acquisition (30 s); (4) association of interacting dimeric Nectin 1/2/3/4 ECD proteins for kₒₙ measurement (90 s); and (5) dissociation of interacting dimeric ECDs for koff measurement (180 s). The interacting dimeric Nectin ECD proteins were used at 5-6 concentrations of 3-fold concentration series. Data were analyzed using Octet® Data Analysis Sofware 9.0 (ForteBio, Inc.) and fitted to the 1:1 binding model. Equilibrium dissociation constants (KD) were calculated by the ratio of […].

Binder | binding result
B4 | no binding (tested: 1.2 nM to 300 nM)

Each binder was assayed against T3, huNectin-2 ECD-hFc in the same assay as above.
Procedure: as §1

Binder | binding result
B4 | no binding (tested: 1.2 nM to 300 nM)

What follows are binders tested against T7, huNectin-3 ECD-hFc (human, UniProt Q9NQS3 58-404) in the same assay as above.
T7 construct: extracellular domain; Bought (Sino Biological); also called hFc-tagged human Nectin-3 ECD dimeric protein; not shown: human Fc tag
Procedure: as §1

T7 sequence (Q9NQS3 58-404): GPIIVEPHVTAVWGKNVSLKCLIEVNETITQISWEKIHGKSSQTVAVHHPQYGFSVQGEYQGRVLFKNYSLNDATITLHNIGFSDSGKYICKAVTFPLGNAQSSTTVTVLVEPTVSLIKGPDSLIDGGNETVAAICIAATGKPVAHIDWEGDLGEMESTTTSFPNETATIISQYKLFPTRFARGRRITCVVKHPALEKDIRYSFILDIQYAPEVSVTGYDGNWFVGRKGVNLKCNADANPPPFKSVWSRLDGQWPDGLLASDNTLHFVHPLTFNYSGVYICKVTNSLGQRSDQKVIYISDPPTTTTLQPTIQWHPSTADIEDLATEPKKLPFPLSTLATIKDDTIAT

Binder | binding result
B4 | no binding (tested: 1.2 nM to 300 nM)

Each binder was assayed against T4, human Nectin-4 on transfected HEK-293 … (assay: flow cytometry on HEK-293 cells transfected with human Nectin-4, anti-huIgG1-PE secondary, MFI (Geo Mean)).
Procedure: (§2) After incubations, cells were washed with FW and then analyzed on a flow cytometer.

Binder | EC50 [mg/L]
B1 | 0.034
B4 | 0.014
B5 | 0.02
B2 | 0.069
B3 | 0.049
B6 | 0.03

The binders below were run against T5, cynomolgus Nectin-4 on transfected … (assay: flow cytometry on HEK-293 cells transfected with cynomolgus Nectin-4, anti-huIgG1-PE secondary, MFI (Geo Mean)).
Procedure: as §2

Binder | EC50 [mg/L]
B1 | 0.016
B4 | 0.017
B5 | 0.016
B2 | 0.023
B3 | 0.019
B6 | 0.018

Each binder was assayed against T6, huNectin-4 ECD-hFc (assay: BLI (Octet Red 96), biotinylated hzD6.2C on streptavidin biosensors, dimeric ECD-hFc in solution, 1:1 model, KD with avidity).
Procedure: as §1

Binder | Kd [nM]
B4 | < 0.001

What follows are binders tested against T1, Nectin-4 on MDA-MB-175-VII tumor cells (assay: flow cytometry on MDA-MB-175-VII cells (Nectin-4 expressing tumor cell line), anti-huIgG1-PE secondary, MFI (Geo Mean)).
Procedure: as §2

Binder | EC50 [mg/L]
B1 | 0.0095
B4 | 0.012
B5 | 0.0097
B2 | 0.0086
B3 | 0.011
B6 | 0.01
